# According to PMC7614769:
# Several values for one entry are separate records, joined by “and”; a condition that tells them apart may be missing. Equal values may be shown once.
# Molecular target: human FcμR ectodomain (human) (UniProt O60667)
# Assay: BLI; FcμR (20 μg/ml) captured on AMC (anti-mouse IgG-Fc capture) biosensors by the anti-FcμR antibody RR-16; full-length or proteolysed IgM 0.08-10 nM in solution; PBS, 0.005% Tween 20, 25 °C; apparent Kd from response against IgM concentration, 1:1 binding model
# Full-length IgM (myeloma), pentamer with J chain, sequence (P01591 whole entry, looked up): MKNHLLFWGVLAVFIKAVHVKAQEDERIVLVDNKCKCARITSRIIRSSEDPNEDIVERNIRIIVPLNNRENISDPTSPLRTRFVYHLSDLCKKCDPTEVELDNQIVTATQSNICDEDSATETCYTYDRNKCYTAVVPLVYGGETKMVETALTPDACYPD
# human FcμR ectodomain (human), sequence (O60667 17-251): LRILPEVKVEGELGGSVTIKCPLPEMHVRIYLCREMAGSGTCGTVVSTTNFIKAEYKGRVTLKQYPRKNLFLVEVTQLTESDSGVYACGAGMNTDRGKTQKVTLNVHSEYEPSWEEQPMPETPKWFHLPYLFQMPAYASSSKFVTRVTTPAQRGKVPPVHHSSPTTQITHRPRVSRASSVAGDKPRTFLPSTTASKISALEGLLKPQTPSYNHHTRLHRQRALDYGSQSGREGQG
substance,measurement,value
"Full-length IgM (myeloma), pentamer with J chain (from UniProt P01591 23-159) (antibody)",Kd,0.3 nM and 0.4 nM
